Where no end group is shown, it is not given here.
Columns and labels:
[1] = molecular target: T1, Streptavidin on Streptavidin-coated biosensors (UniProt P22629 25-183); experiment: BLI; BLItz system; Streptavidin-coated biosensors exposed to chemically synthesized 5'FAM peptides for 2 min in ES2 buffer; only a single analyte concentration tested; conditions: both partners purified
T1 construct: Streptavidin coated on disposable biosensors; also called Streptavidin biosensors; source: bought: Streptavidin-coated biosensors for ForteBio's BLItz system
T1 sequence (P22629 25-183): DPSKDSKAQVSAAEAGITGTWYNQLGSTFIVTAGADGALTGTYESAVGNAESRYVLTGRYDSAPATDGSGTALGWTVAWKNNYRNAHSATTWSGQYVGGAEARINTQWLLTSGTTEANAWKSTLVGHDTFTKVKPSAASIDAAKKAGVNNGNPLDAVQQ

[2] = molecular target: T2, Recombinant Streptavidin, unconjugated (UniProt P22629 25-183); experiment: fluorescence polarisation; 20 nM 5'FAM-labeled peptide with rising concentrations of Streptavidin/StrepTactin, triplicates; ES2 buffer (100 mM potassium phosphate pH 7.4, 100 μg/ml bovine γ globulin, 0.02% NaN3); at least 2 h at RT or o/n at 4 °C; conditions: both partners purified
T2 construct: Streptavidin, commercial recombinant protein; Used in the fluorescence polarisation assays; source: bought: recombinant, unconjugated format (Thermo Fisher Scientific, BioRad or Perkin Elmer, 'respectively')
T2 sequence (P22629 25-183): as above

Binder | Kd [1] [µM] | Kd [2] [µM]
{FAM}-WSHPQFEK (Strep-tag II; source: synthetic peptide) [5'FAM-labeled Strep-tag II peptide] | 25.4 | 13.3
{FAM}-VSHPQAPF (B5; source: synthetic peptide) [5'FAM-labeled B5 peptide] | 79.5 | –
{FAM}-AWRHPQFGG (Strep-tag I; source: synthetic peptide (GenScript Inc.)) [5'FAM-labeled Strep-tag I peptide] | – | 2.75

Source: PMC5463365, “Assembly and use of high-density recombinant peptide chips for large-scale ligand screening is a practical alternative to synthetic peptide libraries” (BMC Genomics, 2017)
